Holding throughout (assay type): cell-based
Experiment [1] concerns human chondrocyte. Nature of the experiment: Human chondrocyte proliferation (% EdU+). As to conditions: 0.1 ug/mL, 48h; vehicle 0.744. On the procedure: Chondrocytes were cultured for 48h in the presence of FGF17 at indicated dose. FGF18 was added at 0.1 ug/mL as a positive control. Fresh media and FGF17 was added every 24h. Table of % EdU+ chondrocyte and p-values depicted. Mean∓S.D. (*p<0.05 by Tukey Honest Significant Difference T-test, n=2-3)

Experiment [2] relates to DM1 human myoblast. Nature of the experiment: Gene expression fold change in DM1 human myoblast. Conditions: 48h; BMP7 50 ng/mL, Butyrate 100 nM, IGF2 200 ng/mL; FM 1.000.
In experiment [3] the test system is mouse myoblast cells. Briefly: Mouse myoblast proliferation assay (EdU). As to conditions: 48h, vehicle 10.56. On the procedure:
(§1) FIG. 5A) Bar graph quantitation of % EdU+ mouse myoblast in response to BMP7. Myoblast were cultured 48h in the presence of BMP7 at indicated dose. Fresh media and BMP7 was added every 24h, followed by 2 hour EdU pulse and fixation. Mean∓S.D. Significant p-values (Vehicle˜BMP7 0.025 ug/mL: 1.21E-07, Vehicle˜BMP7 0.075 ug/mL: 8.05E-07, Vehicle˜BMP7 0.2255 ug/mL: 3.37E-03, Vehicle˜BMP7 0.9 ug/mL: 4.99E-02). FIG. 5B) Bar graph quantitation of % EdU+ human myoblast (person) in response to BMP7. Myoblast were cultured 72h in the presence of BMP7 at indicated dose. Cells were pulsed with EdU for 4 hours before fixation. Mean∓S.D. Significant p-values (Vehicle˜BMP7 1.56 ng/mL: 0.04). (*p<0.05 by Welch's One-Tailed T-test, n=2)
FIG. 6A) Bar graph of % EdU+ mouse myoblast cells compared to vehicle. Mouse myoblast were cultured 48h in the presence of indicated factors, followed by a 2 hour EdU pulse prior to fixation. Mean∓S.D. Significant p-values (FM˜BMP7: 0.008 ug/mL: 3.17E-02, FM˜Leucine: 300 uM BMP7: 0.008 ug/mL: 2.77E-03, FM˜Leucine: 100 uM BMP7: 0.008 ug/mL: 3.72E-05, FM˜Leucine: 900 uM BMP7: 0.008 ug/mL: 2.52E-03). (*p<0.05 by One-Way ANOVA Tukey Honest Significant Difference, n=2-6)
FIG. 7A: Bar graph of % EdU+ mouse myoblast cells compared to vehicle. Mouse myoblast were cultured 48h in the presence of indicated factors. EdU pulse and fixation. Mean∓S.D. (*p<0.05 by Student's One-Tailed T-Test of increased activity, n=2-6)
FIG. 10A) The suspension CHO cells were transiently transfected with either the empty control plasmid or the FGF17-hFcm encoding plasmid. After four days, the culture supernatants were collected and added into the culture of mouse myoblast cells for 48 hours, followed by a 2 hour EdU pulse prior to fixation. […] FIG. 10B) The suspension CHO cells were transiently transfected with the FGF17-hFcm encoding plasmid. After four days, the culture supernatants were collected and FGF17-hFcm was affinity-purified by Protein A membrane column. The purified FGF17-hFcm was added into the culture of mouse myoblast cells for 48 hours, followed by a 2 hour EdU pulse and fixation.
FIG. 11A: SDS-PAGE of culture supernatants from CHO cells transiently transfected with FGF17-hFcm or its mutants encoding plasmids (FGF17d181-216-hFcm, FGF17d204-216-hFcm, FGF17R204QK207Q-hFcm). The expressed FGF17-hFcm proteins and the mutant proteins were indicated by the white arrowheads. FIG. 11B) The culture supernatants from CHO cells transiently transfected with different FGF17 encoding plasmids were added into the culture of mouse myoblast cells for 48 hours followed by 2 hour EdU pulse and fixation.
FIG. 12A) SDS-PAGE of culture supernatants from CHO cells transiently transfected with FGF17-hFcm or its mutants encoding plasmids (FGF17d197-216-hFcm, FGF17K191AK193AS200A-hFcm). The expressed FGF17-hFcm proteins and the mutant proteins were indicated by the white arrowheads. FIG. 12B) The culture supernatants from CHO cells transiently transfected with different FGF17 encoding plasmids were added into the culture of mouse myoblast cells for 48 hours, followed by 2 hour EdU pulse and fixation.
FIG. 14A: Bar graph of % EdU+ mouse myoblast cells compared to vehicle. Myoblast were cultured 48h in the presence of indicated factors. Fresh media and factors were added every 24h, followed by 2 hour EdU pulse and fixation. Mean∓S.D. Table quantitation of % EdU and p-values (*p<0.05 by One-Way ANOVA Tukey Honest Significant Difference, n=2-6)
FIG. 15A: Bar graph of % EdU+ mouse myoblast cells compared to vehicle. Myoblast were cultured 48h in the presence of indicated factors. Fresh media and factors were added every 24h, followed by 2 hour EdU pulse and fixation. Mean∓S.D. Table quantitation of % EdU and p-values shown. (*p<0.05 by Student's One-Tailed T-Test of increased activity, n=2-6)
Bar graph of total EdU+ mouse myoblast cells compared per condition. Myoblast were cultured 48h in the presence of indicated factors. […]

For experiment [4], the system named is human myoblast. Nature of the experiment: Human myoblast proliferation (nuclei counts, EdU counts). As to conditions: 72h, vehicle 2083.5. On the procedure:
as §1
Bar graph of total EdU+ mouse myoblast cells compared per condition. Myoblast were cultured 48h in the presence of indicated factors. Fresh media and factors were added every 24h, followed by 2 hour EdU pulse and fixation. Mean∓Standard Deviation(SD) Table quantitation of EdU counts per field and p-values for mouse assay (*p<0.05 by Student's One-Tailed T-Test of increased activity, n=3-6, Synergy values <1 are evidence of effect). Bar graph of total EdU+ human myoblast cells per condition. Myoblast were cultured 72h in the presence of indicated factors, followed by 4 hour EdU pulse and fixation. Fresh media and factors were added every 24h. Mean∓Standard Deviation(SD). Table quantitation of +EdU counts and p-values for human assay. (*p<0.05 by Student's One-Tailed T-Test of increased activity, n=3-6, Synergy values <1 are evidence of effect)

B1: FGF18: FGF18 added at 0.1 ug/mL as a positive control (protein, UniProt O76093 28-207, looked up)
Fibroblast growth factor 18: EENVDFRIHVENQTRARDDVSRKQLRLYQLYSRTSGKHIQVLGRRISARGEDGDKYAQLLVETDTFGSQVRIKGKETEFYLCMNRKGKLVGKPDGTSKECVFIEKVLENNYTALMSAKYSGWYVGFTKKGRPRKGPKTRENQQDVHFMKRYPKGQPELQKPFKYTTVTKRSRRIRPTHPA
Consider B1, for which the “% EdU” value in experiment [1] came to 6.039%.

B2: BMP7: BMP7 polypeptide, BMP receptor agonist (protein, UniProt P18075 293-431, looked up)
Bone morphogenetic protein 7: STGSKQRSQNRSKTPKNQEALRMANVAENSSSDQRQACKKHELYVSFRDLGWQDWIIAPEGYAAYYCEGECAFPLNSYMNATNHAIVQTLVHFINPETVPKPCCAPTQLNAISVLYFDDSSNVILKKYRNMVVRACGCH
Consider B2, for which the “MYF5 expression fold change compared to FM” value in experiment [2] came to 0.709. Also, the “MYOD1 expression fold change compared to FM” value in experiment [2] was 0.709. The “MYOG expression fold change compared to FM” value in experiment [2] is given as 0.361. For the same molecule, the “% EdU” value amounted to 18.08% in experiment [3] (BMP7 0.025 ug/mL); 17.53% in experiment [3] (BMP7 0.075 ug/mL); 14.93% in experiment [3] (BMP7 0.2255 ug/mL); 12.93% in experiment [3] (BMP7 0.45 ug/mL); 13.91% in experiment [3] (BMP7 0.9 ug/mL); 10.37% in experiment [3] (BMP7 1.8 ug/mL). Moreover, the “Nuclei Counts” value came out at 2144.5 in experiment [4] (BMP7 0.78 ng/mL, donor); 2552.5 in experiment [4] (BMP7 1.56 ng/mL); 2408 in experiment [4] (BMP7 3.12 ng/mL); 2422.5 in experiment [4] (BMP7 6.25 ng/mL); 2706 in experiment [4] (BMP7 12.5 ng/mL); 2509 in experiment [4] (BMP7 25 ng/mL).

Source of the values: patent US12358963B2, “Regenerative polypeptides and uses thereof” (Juvena Therapeutics, Inc., priority 2019, dated 2025).
